Experimental findings from IntAct's records for PubMed 19461891 are described below.

To fix the notation:
B1: Defective in germ line development protein 3 (Caenorhabditis elegans), Q95ZK7-1 (parent)
chain: MGEQSHEKDHDEAHSYNPFVRSAVEYDADTRLQMAENAASARKLFVSSALKDIIVNPENFYHDFQQSAQMAEDANQRRQVSYNTKREAHIHQLKAQGLPLPSNIPMIEINPTRVTLNMEFESQYYSLMTSDNGDHENVASIMAETNTLIQLPDRSVGGTTPDPFAQQVTITGYFGDVDRARMLMRRNCHFTVFMALSKMKMPLHELQAHVRQNPIQNVEMSFVDAPEKNGIVTTYLRITAREKNQHELIEAAKRLNEILFRESPAPENNFTLHFTLSTYYVDQVLGSSSTAQLMPVIERETTTIISYPCYNNRNETRGNIYEIKVVGNIDNVLKARRYIMDLLPISMCFNIKNTDMAEPSRVSDRNIHMIIDESGIILKMTPSVYEPADLLSGEVPLNCASLRSKEFNIKKLYTAYQKVLSKKFDFIAPQPNDYDNSIWHHSLPANFLKNFNMPCRGELSDGSNGRRHRSSSIASSRSKHSYMSKGKQFSESSGGPSRSHTRVSSFSENSSTVPIMQFPTPHFAPPMLTPHHHMLKYVYLQQHQQAQTFLKGAAGLHPGTHIMFPPPIIVDGSFVSALPFADPVVFDGFPYVHGLFPVNEAEQHRNHRESSPSLRSTQEIRKPSRNMGNRPSSSTGSYYPSTTPRQRVYEQVREDDLRSHIGSRRTSVNGDDQNVESMHDQGYERQYPRQHQRLQKDDQQRWKTGSRGDIHSSRTINVHRDVRNSNEYDFHVGNSGPAKRSPSLEQVQLQMTHHLKLKSNDVDLDHEKLYMHESPHNDSDTTVSASGFGNDLMDGDFVQRFLSNANINESGRRPRTVSCFTEKDGQSARYIDSDGAYSVVDHASTHQSRSYDSFRKVGDNGVTKTILEPRARVEKDYGKISLEHKTKYSNEYGDEEKSAENDTSSLGSRQYRIDPMKLIASVRESSEQLPRIHERQFSDVLNEKEKEIADKSIESTVTQDLSLDETSTY
partner: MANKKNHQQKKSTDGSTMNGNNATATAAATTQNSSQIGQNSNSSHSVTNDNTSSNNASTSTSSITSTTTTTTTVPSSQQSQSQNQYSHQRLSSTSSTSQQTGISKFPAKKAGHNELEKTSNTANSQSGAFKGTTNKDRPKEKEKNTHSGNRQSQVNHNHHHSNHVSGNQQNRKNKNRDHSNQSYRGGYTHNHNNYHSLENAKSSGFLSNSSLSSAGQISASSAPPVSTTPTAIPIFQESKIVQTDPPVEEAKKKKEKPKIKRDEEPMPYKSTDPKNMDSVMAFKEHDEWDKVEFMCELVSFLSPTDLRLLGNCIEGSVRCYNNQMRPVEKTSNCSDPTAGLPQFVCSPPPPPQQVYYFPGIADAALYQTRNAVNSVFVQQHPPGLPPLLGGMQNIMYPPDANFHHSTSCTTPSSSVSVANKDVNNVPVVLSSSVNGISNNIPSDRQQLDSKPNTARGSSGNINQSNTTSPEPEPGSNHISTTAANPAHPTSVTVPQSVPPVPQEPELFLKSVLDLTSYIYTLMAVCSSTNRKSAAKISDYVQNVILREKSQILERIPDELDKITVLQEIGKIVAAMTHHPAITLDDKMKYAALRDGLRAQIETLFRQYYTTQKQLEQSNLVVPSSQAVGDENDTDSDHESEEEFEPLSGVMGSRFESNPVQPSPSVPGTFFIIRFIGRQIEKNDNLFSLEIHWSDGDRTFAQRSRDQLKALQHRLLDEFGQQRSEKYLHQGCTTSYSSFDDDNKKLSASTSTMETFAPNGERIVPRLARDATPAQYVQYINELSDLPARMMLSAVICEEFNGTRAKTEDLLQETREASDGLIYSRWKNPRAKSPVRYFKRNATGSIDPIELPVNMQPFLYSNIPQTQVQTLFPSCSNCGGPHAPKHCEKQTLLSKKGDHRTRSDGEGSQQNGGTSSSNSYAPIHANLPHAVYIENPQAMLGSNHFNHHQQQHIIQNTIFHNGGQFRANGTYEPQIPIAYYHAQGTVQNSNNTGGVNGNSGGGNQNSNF

The variants in the assay derive from B1. As to conditions: with gls-1, Q8I4M5-3.
In the case of G327R, the “effect of a mutation on the interaction” value is on record as “disrupting interaction strength”.
